# T1: Apo-3 (TNFRSF25) Fc fusion protein (Human, UniProt Q93038 25-199)
# T1 construct: extracellular domain; bought
# T1 sequence (looked up): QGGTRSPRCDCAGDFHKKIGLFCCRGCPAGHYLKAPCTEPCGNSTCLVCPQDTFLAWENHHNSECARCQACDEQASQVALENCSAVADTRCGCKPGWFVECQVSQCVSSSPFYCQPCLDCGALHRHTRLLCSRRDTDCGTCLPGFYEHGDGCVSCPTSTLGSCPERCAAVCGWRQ
# T2: CD95 (TNFRSF6) Fc fusion protein (Human, UniProt P25445 26-173)
# T2 construct: extracellular domain; bought
# T2 sequence (looked up): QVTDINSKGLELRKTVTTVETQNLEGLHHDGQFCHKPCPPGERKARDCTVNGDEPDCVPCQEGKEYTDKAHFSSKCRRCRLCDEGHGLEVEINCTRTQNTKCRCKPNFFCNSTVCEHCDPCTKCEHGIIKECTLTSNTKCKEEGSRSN
# T3: TACI (TNFRSF13B) Fc fusion protein (Human, UniProt O14836 1-165)
# T3 construct: extracellular domain; bought
# T3 sequence (looked up): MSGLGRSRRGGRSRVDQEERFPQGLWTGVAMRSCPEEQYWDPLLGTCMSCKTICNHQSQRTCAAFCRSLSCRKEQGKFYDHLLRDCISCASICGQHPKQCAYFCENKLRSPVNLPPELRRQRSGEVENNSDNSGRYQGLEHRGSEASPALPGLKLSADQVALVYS
# T4: CD30 (TNFRSF8) Fc fusion protein (Human, UniProt P28908 19-385)
# T4 construct: extracellular domain; bought
# T4 sequence (looked up): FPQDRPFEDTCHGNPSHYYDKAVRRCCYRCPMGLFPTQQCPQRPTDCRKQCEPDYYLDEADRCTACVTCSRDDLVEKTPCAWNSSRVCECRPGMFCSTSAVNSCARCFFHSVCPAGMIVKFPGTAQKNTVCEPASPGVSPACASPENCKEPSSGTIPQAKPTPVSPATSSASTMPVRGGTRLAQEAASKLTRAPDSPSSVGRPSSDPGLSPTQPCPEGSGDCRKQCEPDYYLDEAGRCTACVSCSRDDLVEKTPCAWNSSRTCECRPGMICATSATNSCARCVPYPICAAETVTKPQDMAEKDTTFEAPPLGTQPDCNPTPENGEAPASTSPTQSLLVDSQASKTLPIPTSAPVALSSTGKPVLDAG
# T5: EDAR Fc fusion protein (Human, UniProt Q9UNE0 27-187)
# T5 construct: extracellular domain; bought
# T5 sequence (looked up): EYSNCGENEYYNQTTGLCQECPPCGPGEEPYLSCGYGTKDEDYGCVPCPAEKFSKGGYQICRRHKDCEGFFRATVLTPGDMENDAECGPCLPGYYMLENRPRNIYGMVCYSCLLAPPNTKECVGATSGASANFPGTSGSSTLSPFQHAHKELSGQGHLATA
# T6: Trail R3 (TNFRSF10C) Fc fusion protein (Human, UniProt O14798 26-221, limits assumed)
# T6 construct: extracellular domain; bought
# T6 sequence (looked up): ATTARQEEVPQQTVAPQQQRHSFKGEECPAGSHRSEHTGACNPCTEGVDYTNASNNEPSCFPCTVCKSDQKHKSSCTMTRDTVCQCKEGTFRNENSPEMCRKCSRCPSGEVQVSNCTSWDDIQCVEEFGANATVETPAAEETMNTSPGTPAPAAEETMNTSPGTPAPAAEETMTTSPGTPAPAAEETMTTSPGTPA
# T7: Trail R 4 (TNFRSF10D) Fc fusion protein (Human, UniProt Q9UBN6 56-211)
# T7 construct: extracellular domain; bought
# T7 sequence (looked up): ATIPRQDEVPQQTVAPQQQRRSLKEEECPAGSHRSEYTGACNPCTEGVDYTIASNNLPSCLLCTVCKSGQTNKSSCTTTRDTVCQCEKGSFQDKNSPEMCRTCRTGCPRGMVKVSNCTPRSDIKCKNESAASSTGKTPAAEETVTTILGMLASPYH
# T8: TROY (TNFRSF19) Fc fusion protein (Human, UniProt Q9NS68 30-170)
# T8 construct: extracellular domain; bought
# T8 sequence (looked up): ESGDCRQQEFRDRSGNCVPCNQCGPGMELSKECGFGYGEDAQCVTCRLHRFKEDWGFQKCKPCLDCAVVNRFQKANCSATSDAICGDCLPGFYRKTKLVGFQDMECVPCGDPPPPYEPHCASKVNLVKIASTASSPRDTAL
# T9: TPP-1984 (hTNFRSF12Aaa28-68-CT-His) (human)
# T9 construct: monomeric ectodomain with HIS6 tag; also called TWEAKR(28-68)-HIS; C-terminally truncated TWEAKR ectodomain
# T9 chain: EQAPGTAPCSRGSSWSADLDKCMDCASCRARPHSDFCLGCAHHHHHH
# B1: TPP-2090 (antibody, human IgG1, kappa, V domains shown)
# VH: EVQLLESGGGLVQPGGSLRLSCAASGFTFSPYPMIWVRQAPGKGLEWVSYISPSGGSTHYADSVKGRFTISRDNSKNTLYLQMNSLRAEDTAVYYCARGGDTYFDYFDYWGQGTLVTVSS
# VL: DIQMTQSPSSLSASVGDRVTITCRASQSISGYLNWYQQKPGKAPKLLIYQASSLQSGVPSRFSGSGSGTDFTLTISSLQPEDFATYYCQQSYTSPFITFGQGTKVEIKR
# notes: Human IgG1
# How the values were obtained:
# [1] = biological target: T10, TPP-1778 (PIG-TNFRSF12Aaa28-80-hIgG1-Fc) (pig); assay: SPR, TWEAKR-Fc immobilized, IgG injected, bivalent analyte model (avidity mode);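 further: kd derived as the ratio of fitted dissociation to association rate constants, with sensorgrams corrected against a reference flow cell and a buffer blank before fitting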
# T10 construct: bivalent antigen; also called pig TWEAKR Fc
# Protocol: Sensorgrams were generated after in-line reference cell correction followed by buffer sample subtraction. The dissociation equilibrium constant (KD) was calculated based on the ratio of association (kₒₙ₁) and dissociation rated (koff1) constants, obtained by fitting sensorgrams with a bivalent analyte model using Biavaluation Software (version 4.0).
# [2] = biological target: T1, Apo-3 (TNFRSF25) Fc fusion protein; assay: ELISA, Fc fusion protein coated at 1 µg/ml, TPP-2090 at 75 nM, Amplex Red;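 further: binding reported as ELISA signal intensity in Rfu against a panel of TNF receptor superfamily members presented as Fc fusion proteins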
# Description: (§1) Shown is the result of an ELISA: Y is “ELISA signal intensity [Rfu]”; X are “TNF receptor superfamily proteins tested (Fc-fusion proteins)”: 1 is “TWEAKR”; 2 is “TWEAKR”; 3 is “Apo-3”; 4 is “Trail-R1”; 5 is “Trail-R2”; 6 is “CD385”; 7 is “CD95”; 8 is “Rank”; 9 is “TNF-R1”; 10 is “TNF-R2”; 11 is “BAFF-R”; 12 is “DcR3”; 13 is “BCMA”; 14 is “TACI”; 15 is “OX40”; 16 is “CD30”; 17 is “CD27”; 18 is “CD40”; 19 is “Osteoprotegerin”; 20 is “EDAR”; 21 is “GITR”; 22 is “HVEM”; 23 is “NGF R”; 24 is “Trail R3”; 25 is “Lymphotioxin B R”; 26 is “Trail R4”; 27 is “EDA2R”; 28 is “TROY”; 29 is “RELT”; 30 is “4-1BB”.
# (§2) To collect dose-response data a serial 3fold dilution of biotinylated IgG starting with a concentration of 2 μM was used as soluble binding partner. Detection was done with anti-hIgG1-HRP and Amplex Red.
# [3] = biological target: T11, Trail-R1 (TNFRSF10A) Fc fusion protein (Human, UniProt O00220 24-239); assay: as above
# T11 construct: extracellular domain; bought
# T11 sequence (O00220 24-239): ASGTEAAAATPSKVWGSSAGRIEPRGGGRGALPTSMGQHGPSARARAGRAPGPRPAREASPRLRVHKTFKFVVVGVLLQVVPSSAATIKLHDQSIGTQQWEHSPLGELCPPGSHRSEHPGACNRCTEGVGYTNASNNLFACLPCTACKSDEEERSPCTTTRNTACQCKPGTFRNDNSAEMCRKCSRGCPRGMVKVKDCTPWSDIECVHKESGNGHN
# Description: as §1, §2
# [4] = biological target: T2, CD95 (TNFRSF6) Fc fusion protein; assay: as above
# Description: as §1, §2
# [5] = biological target: T3, TACI (TNFRSF13B) Fc fusion protein; assay: as above
# Description: as §1, §2
# [6] = biological target: T4, CD30 (TNFRSF8) Fc fusion protein; assay: as above
# Description: as §1, §2
# [7] = biological target: T5, EDAR Fc fusion protein; assay: as above
# Description: as §1, §2
# [8] = biological target: T6, Trail R3 (TNFRSF10C) Fc fusion protein; assay: as above
# Description: as §1, §2
# [9] = biological target: T7, Trail R 4 (TNFRSF10D) Fc fusion protein; assay: as above
# Description: as §1, §2
# [10] = biological target: T8, TROY (TNFRSF19) Fc fusion protein; assay: as above
# Description: as §1, §2
# [11] = biological target: T12, 4-1BB (TNFRSF9) Fc fusion protein (Human, UniProt Q07011 24-186); assay: as above
# T12 construct: extracellular domain; bought
# T12 sequence (Q07011 24-186): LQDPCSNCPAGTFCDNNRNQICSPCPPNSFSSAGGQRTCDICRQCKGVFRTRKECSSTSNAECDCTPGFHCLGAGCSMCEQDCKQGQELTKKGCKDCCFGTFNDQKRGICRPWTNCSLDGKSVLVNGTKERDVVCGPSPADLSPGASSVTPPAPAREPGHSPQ
# Description: as §1, §2
# [12] = biological target: T9, TPP-1984 (hTNFRSF12Aaa28-68-CT-His); assay: ELISA, TPP-1984 coated at 1 µg/ml, biotinylated IgG at 0.08 µg/ml (open bar) and 0.3 µg/ml (filled bar), Streptavidin-HRP, Amplex Red
# Protocol: Detection was done with Streptavidin-HRP and Amplex-Red substrate.
# To analyze for binding, 1 μg/ml of the respective dimeric TWEAKR-Fc construct were coated and, 0.3 μg/ml and 0.08 μg/ml of biotinylated IgG were used as soluble binding partner. Detection was done with Streptavidin-HRP and Amplex-Red substrate.
binder,measurement,setting,value
B1,Kd,[1],9.9 nM
same,binding result,[2],no binding (tested: 75 nM)
same,binding result,[3],no binding (tested: 75 nM)
same,binding result,[4],no binding (tested: 75 nM)
same,binding result,[5],no binding (tested: 75 nM)
same,binding result,[6],no binding (tested: 75 nM)
same,binding result,[7],no binding (tested: 75 nM)
same,binding result,[8],no binding (tested: 75 nM)
same,binding result,[9],no binding (tested: 75 nM)
same,binding result,[10],no binding (tested: 75 nM)
same,binding result,[11],no binding (tested: 75 nM)
same,binding result,[12],binds

# From US20160237160A1 (Bayer, published 2016)
